According to patent US20260250410A1, “ANTIBODY AND USE THEREOF” (SICHUAN HUIYU PHARMACEUTICAL CO., LTD., priority 2022, published 2026):
Substitutions are numbered along the chain they refer to.

T1: HuCDCP1-C (Homo sapiens, UniProt Q9H5V8)
T1 construct: made in house; host or cells: HEK-293T
T1 sequence (Q9H5V8 30-667): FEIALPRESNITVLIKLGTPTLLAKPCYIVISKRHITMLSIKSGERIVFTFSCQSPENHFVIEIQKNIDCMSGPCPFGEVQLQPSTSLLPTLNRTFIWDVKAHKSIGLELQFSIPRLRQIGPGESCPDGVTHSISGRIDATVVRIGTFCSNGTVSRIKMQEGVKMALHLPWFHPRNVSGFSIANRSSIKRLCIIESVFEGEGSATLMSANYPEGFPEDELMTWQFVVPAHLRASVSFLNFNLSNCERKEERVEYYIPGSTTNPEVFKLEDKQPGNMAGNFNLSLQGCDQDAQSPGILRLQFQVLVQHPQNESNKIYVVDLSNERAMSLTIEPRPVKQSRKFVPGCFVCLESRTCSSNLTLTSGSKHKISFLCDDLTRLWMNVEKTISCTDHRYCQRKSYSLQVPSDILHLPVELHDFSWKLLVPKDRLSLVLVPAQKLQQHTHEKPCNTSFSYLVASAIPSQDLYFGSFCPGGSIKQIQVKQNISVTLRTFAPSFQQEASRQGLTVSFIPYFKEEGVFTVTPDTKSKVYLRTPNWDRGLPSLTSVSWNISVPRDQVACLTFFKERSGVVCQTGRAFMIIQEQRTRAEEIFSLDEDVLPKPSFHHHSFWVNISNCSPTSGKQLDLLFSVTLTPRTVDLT

B1: 14A10C5: anti-CDCP1 murine monoclonal antibody (hybridoma); VH SEQ ID NO: 257, VL SEQ ID NO: 307 (antibody, V domains shown)
VH: EVKLVESGPGILQPSQTLSLTCSFSGFSLSTSGMGVSWIRQPSGKGLEWLAHIYWDDEKRYNPSLKSRLTISKDTSSNQVFLKITSVDTADTATYYCAREGSANWEAMDYWGQGTTVTVSS
VL: DIVMTQAALSLPVSLGDQASISCRSSQNIVYTNGITYLEWYLQKPGQSPKLLIYKVSNRFSGVPDRFSGSGSATDFTLKISRVEAEDLGVYYCFQSSHVPWTFGGGTKLEIK
modifications: 14A10C5 heavy chain variable region; 14A10C5 light chain variable region
B2: 1CP-152: humanized anti-CDCP1 antibody produced by 8C9; VH SEQ ID NO: 344, VL SEQ ID NO: 354 (antibody, V domains shown)
VH: EVQLVESGGGLVQPGRSLRLSCTTSGLTFTHYHMSWVRQAPGKGLEWVAIIRNKAYGYTTDYSASVRGRFTISRDDSKSILYLQMNSLKTEDTAVYYCVREGGYGYDGTFAYWGQGTLVTVSS
VL: DIQMTQSPSSLSASVGDRVTITCRASESVDNYGISFMNWFQQKPGQAPKLLIYAASNQGSGVPSRFSGSGSGTDFTLTISSMQPEDFATYYCQQSKEVPRTFGGGTKVEIK
modifications: humanized antibody 8C9 heavy chain variable region 02; humanized antibody 8C9 light chain variable region 01
B3: 1CP-157: humanized anti-CDCP1 antibody produced by 8C9; VH SEQ ID NO: 345, VL SEQ ID NO: 355 (antibody, V domains shown)
VH: B2 VH with L45P
VL: B2 VL with A47P
modifications: humanized antibody 8C9 heavy chain variable region 03; humanized antibody 8C9 light chain variable region 02
B4: 1CP-124: humanized anti-CDCP1 antibody produced by 3C11; VH SEQ ID NO: 339, VL SEQ ID NO: 351 (antibody, V domains shown)
VH: QVQLVQSGAEVKKPGASVKVSCKASGYNFISYWLHWVRQAPGQGLEWMGGIYPGNTDTTYNQKFKGRVTMTRDTSTSTVYMELSSLRSEDTAVYYCIRYDYDRGMDYWGQGTLVTVSS
VL: DIQMTQSPSSLSASVGDRVTITCRASEDIYYRLAWYQQKPGKAPKLLISGATALETGVPSRFSGSGSGKDYTFTISSLQPEDIATYYCQHYWNIPWTFGQGTKVEIK
modifications: humanized antibody 3C11 heavy chain variable region 01; humanized antibody 3C11 light chain variable region 01
B5: 1CP-129: humanized anti-CDCP1 antibody produced by 3C11; VH SEQ ID NO: 340, VL SEQ ID NO: 352 (antibody, V domains shown)
VH: B4 VH with R72A
VL: B4 VL with F73L
modifications: humanized antibody 3C11 heavy chain variable region 02; humanized antibody 3C11 light chain variable region 02
B6: 1CP-128: humanized anti-CDCP1 antibody produced by 3C11; VH SEQ ID NO: 339, VL SEQ ID NO: 352 (antibody, V domains shown)
VH: B4 VH
VL: B4 VL with F73L
modifications: humanized antibody 3C11 heavy chain variable region 01; humanized antibody 3C11 light chain variable region 02
B7: 1CP-125: humanized anti-CDCP1 antibody produced by 3C11; VH SEQ ID NO: 340, VL SEQ ID NO: 351 (antibody, V domains shown)
VH: B4 VH with R72A
VL: B4 VL
modifications: humanized antibody 3C11 heavy chain variable region 02; humanized antibody 3C11 light chain variable region 01

Test system: MDA-MB-231 cells
Assay: Transwell tumor cell migration experiment
Type: cell-based, human
Conditions: MDA-MB-231, antibody 10 μg/ml
Description: In order to determine the effect of antibodies on tumor cell metastasis, the migration ability of tumor cells was examined in this study according to a transwell experiment. The specific cell migration experiment involved culturing and collecting MDA-MB-231 cells, washing them once with PBS, adjusting the density to 8×10^5 cells/mL, adding the antibody to be tested to the cells such that the working concentration thereof was 10 μg/ml, co-incubating for 30 mins, adding a cell suspension to the upper chamber of the transwell chamber, placing the transwell chamber in the incubator for 12-48 h, then removing the chamber (transwell chamber, to examine cell migration ability), immobilizing the cells, staining the cells with crystal violet for 15 mins, washing, air drying, mounting, and taking photos of 4-5 fields of view under a microscope, and counting the number or area of the stained cells using imageJ analysis software, the number or area was used as the basis for determining tumor cell migration.

| Molecule | effect on tumor cell migration (transwell, FIG. 4c) |
| --- | --- |
| B1 | better capability to inhibit tumor cell migration than SEQ135 |

Test system: MDA-MB-231 cells
Assay: Endocytosis capacity of humanized antibodies
Type: cell-based, human
Conditions: MDA-MB-231, 1 h at 37° C., antibody 1.5 μg/mL
Description: The endocytosis capacity of the anti-CDCP1 humanized antibody was detected with reference to example 5. MDA-MB-231 cells were subjected to digestion with 5 mM EDTA, and plated at 3×10^4 cells/well after cell counting. After adding an Fc blocker and blocking at room temperature for 10 mins, a test antibody (1.5 μg/mL) was added, and the mixture was incubated at 4° C. for 30 mins, centrifuged, and washed twice with PBS+2% FBS, then the cells were divided into three equal portions (labeled as 0 h, 1 h, 2 h), cells labeled as 1 h and 2 h time points were added to 200 μL of cell culture medium, and cultured at 37° C. for 1 h and 2 h, respectively. Cells at 0 h point were centrifuged, a secondary antibody (PE anti-human IgG Fc Antibody, Biolegend, 410708) was added, and the mixture was incubated at 4° C. for 30 mins, centrifuged, and washed twice with PBS+2% FBS, and detection was performed using a flow cytometer. After incubation of cells labeled as 1 h and 2 h points at 37° C. was completed, a secondary antibody was added (in the same steps as those at 0 h point), Geo-MFI of the signal under the same voltage was collected as detection signal at 0 h, and antibody internalization rate was calculated according to the following equation: Internalization (%)=(Geo-MFI (0 h)-Geo-MFI (1, 2 h))/Geo-MFI (0 h)×100%.

| Molecule | 1 h endocytosis (%) |
| --- | --- |
| B2 | 54.39 |
| B3 | 56.06 |
| B4 | 38.17 |
| B5 | 36.18 |
| B6 | 36.87 |
| B7 | 79.56 |

Same assay, conditions: MDA-MB-231, 2 h at 37° C., antibody 1.5 μg/mL

| Molecule | 2 h endocytosis (%) |
| --- | --- |
| B2 | 69.96 |
| B3 | 70.74 |
| B4 | 56.39 |
| B5 | 54.25 |
| B6 | 55.68 |
| B7 | 88.62 |

Test system: PC3 cells
Assay: Endocytosis capacity of murine monoclonal antibody (flow cytometry internalization)
Type: cell-based, human
Conditions: PC3, 2 h at 37° C., antibody 1.5 μg/mL
Description: (§1) The endocytosis capacity of the antibody was detected for 0.5 to 2 hours. MDA-MB-231 and PC3 cells were subjected to digestion with 5 mM EDTA, and plated at 4×10^4 cells/well after cell counting. After adding an Fc blocker (Human TruStain FcX™, Biolegend, 422302) and blocking at room temperature for 10 mins, a test antibody (1.5 μg/mL) was added, and the mixture was incubated at 4° C. for 30 mins, centrifuged, and washed twice with PBS+2% FBS, then the cells were divided into four equal portions (labeled as 0 h, 0.5 h, 1 h, 2 h), cells labeled as 0.5 h, 1 h, 2 h time points were added to a cell culture medium at 200 µL/well, and cultured at 37° C. for 0.5 h, 1 h, 2 h, respectively. Cells at 0 h point were centrifuged to remove supernatant, a secondary antibody (PE anti-human IgG Fc Antibody, Biolegend, 410708) was added, and the mixture was incubated at 4° C. for 30 mins, centrifuged, and washed twice with PBS+2% FBS, and detection was performed using a flow cytometer. After incubation of cells labeled as 0.5 h, 1 h, and 2 h points at 37° C. was completed, a secondary antibody was added (in the same steps as those at 0 h point), Geo-MFI of the signal under the same voltage was collected as detection signal at 0 h, and antibody internalization rate was calculated according to the following equation: Internalization (%)=(Geo-MFI (0 h)-Geo-MFI (0.5, 1, 2 h))/Geo-MFI (0 h)×100%.

| Molecule | Internalization PC3 (%) 2 h [%] |
| --- | --- |
| B1 | 51.73 |

Test system: MDA-MB-231 cells
Assay: as above
Type: cell-based, human
Conditions: MDA-MB-231, 2 h at 37° C., antibody 1.5 μg/mL
Description: as §1

| Molecule | Internalization MDA-MB-231 (%) 2 h [%] |
| --- | --- |
| B1 | 39.23 |

Biological target: T1, HuCDCP1-C
Assay: Caterra affinity of humanized anti-CDCP1 antibodies
Type: binding
Conditions: HuCDCP1-C 2 μg/ml immobilized
Description: The humanized anti-CDCP1 antibodies obtained from Example 11 were subjected to gene cloning, constructed into pTT5 expression vector for a small amount of expression in CHO cells (Expi-CHOS: Gibco A29127), and purified with an Fc affinity column (AT Protein A Diamond Plus. No. AA402312). Antibody purity was analyzed by HPLC and determined by Nanodrop. High-throughput affinity assay was carried out for a small amount of antibodies by Caterra.

| Molecule | ka [M⁻¹ s⁻¹] | kd [s⁻¹] |
| --- | --- | --- |
| B2 | 114000 | 0.000465 |
| B3 | 122000 | 0.000385 |
| B4 | 148000 | 1.47e-05 |
| B5 | 160000 | 1e-05 |
| B6 | 139000 | 1e-05 |
| B7 | 151000 | 2.17e-05 |
